Experimental data published in the RNAGym collection of RNA variant scans (doi:10.7554/elife.80360).

B1: HDV Ribozyme (parent)
chain: GGCCGGCAUGGUCCCAGCCUCCUCGCUGGCGCCGGCUGGGCAACAUUCCGAGGGGACCGUCCCCUCGGUAAUGGCGAAUGGGACCCA

Variants of: B1
Assay: self-cleavage, relative activity (ratio to wild type); higher = more cleavage; co-transcriptional

Variant	self-cleavage
G5U C13G	0.0978
C21A G34A	0.119
G53U G74U	0.701
G59U U65A	0.912
G34U G55C	0.102
C13G C84A	0
C7U G68A	0.969
G17U A51U	0.491
C14U G67U	1.08
U47A C84A	0.808
G40U C75A	0.12
A8C C57A	0.89
G53C C63A	1.06
A45C U60C	0.573
C19U A78G	0.0405
C26A G82U	0.317
C48G G50A	0.798
G6C C64A	0.594
A16C C85G	0.95
C19G	0.0688
C58G A87G	0.874
G10C G53A	0.95
C32G G82U	0.228
C4G A87C	0.373

Variant	self-cleavage
A42U C49G	0.312
G25C C63U	0.0739
G31A U65G	0.34
A51G G74U	0.434
G10C C30A	0.107
C3U C33U	0.769
U12C G81U	0
G50U C57A	0.911
C15G C19U	0.0898
U23A G50A	1.06
C19U C26A	0.446
C30A A51U	0.735
C75G G80U	0.104
C33A A78G	0.161
G5U C22G	0.0615
C49A G50A	0.929
C21G U69C	0.104
C21G U27C	0.217
G68U G82U	0.265
G29A A56C	0.198
C19G A77U	0.0437
C36U G82C	0.269
C41U C75U	0.249
C33U A56G	0.665

Variant	self-cleavage
G68C A70G	0.639
U37G A78U	0
G34C U72A	0.17
U23G U46A	0.712
C21A	0.0856
U23G G59A	0.708
C14G C63U	0.9
C61A G80C	0.201
C26U A71U	0.941
C3U G80C	0.159
A8C G55U	0.831
C62A C75A	0.0314
C61U G73U	0.383
C36A A87U	0.0587
C64G U65G	0.943
G11U C32A	0.0545
C19G G29C	0.201
G10C G82C	0.0875
G52U U69G	1.19
C41U C66U	1
C48A C58G	1.12
G10A C48G	0.671
A43U U60G	0.394
G38U G55A	0.137

Variant	self-cleavage
G38C A43U	0.116
C22A C41A	0.475
U23C C58G	0.673
C36U G40A	0.831
G5C G6A	0
U37A U60A	0.111
G76U C85A	1.05
C36G C49G	0.0773
U9C G31C	0.598
C13U G53U	0.671
G31A G38C	0.142
U46A A77C	0.119
G74U A78G	0.185
G35U C57U	0.538
G34C A77G	0.161
C13U G50A	0.439
C22A A83U	0.0678
C15A C64G	0.81
U23G A77C	0.172
C15A A78G	0.447
C13G C66A	0.0339
A8G G74C	0.0639
C4U C63G	0.396
A51C U79G	0.415

Variant	self-cleavage
C24G A87C	0.128
U37C G50U	0.923
U9C C33U	0.895
U9C G11C	0.266
G38C C48G	0.133
C13U C62U	0.589
G5U A83C	0
C14G C30A	0.0396
C21U G31C	0.0723
U12C C18U	0.111
C24A U46A	0.213
C48G A51C	0.88
C41G G53C	0.658
U46G G55A	0.649
G54A G80U	0.214
C18G G68U	0.0978
G54A A56C	1.03
C19G C22A	0
G29C C84A	0.0831
C22U C41U	0.656
U9G U60C	0.748
G54C A56C	0.864
C24G A56U	0.0831
C33A U46A	0.128

Variant	self-cleavage
G40C U65A	0.326
G6U U12C	0.0573
C61U G74U	0.554
G10U G74A	0.107
C48A G53U	0.915
G2U C49G	0.0329
A45C A78G	0.178
U65C C84A	0.773
C44U C64A	0.408
U27G G68A	0.858
C14A G34U	0.101
C32G G38C	0.0462
U37C C85U	1.01
C4G U20G	0
C21U U65A	0.293
G6U C22U	0.136
C32U A45U	0.631
U9C C85U	1.07
A16C G55U	0.425
C22G A78C	0.131
U60C U79C	0.326
G17A C22G	0.0573
G5C A77G	0.0475
U23A G50C	0.831

Variant	self-cleavage
U47G G53C	1.19
A16C C61A	0.332
A42U G54A	0.441
C4G A43G	0
C57G C86G	0.831
G17C C63A	0.306
A56C A83C	0.494
G17C C22G	0.208
A8U C19U	0.0308
G17A C21A	0.0297
C58A G67A	0.745
C7A G34A	0.175
G38U C58A	0.164
G17U G40A	0.246
C14U C49U	0.942
C4G G81C	0.0767
C13A A78G	0.0773
A71U U79C	0.314
G35A U69C	0.591
C13A G50U	0.282
A45C C84A	0.655
C14G G81U	0.923
A16C G39C	0.0831
